Data: article PMC6357863, “Dithiocarbamate-inspired side chain stapling chemistry for peptide drug design” (Chemical Science, 2018)

Experiment: circular dichroism
Details: phosphate buffer (PB); pH 7.2; 20 °C; 10-50 uM

Compound | helicity
CC(=O)N[C@H](C(=O)N[C@@H](CO)C(=O)N[C@@H](Cc1ccccc1)C(=O)N[C@@H](C)C(=O)N[C@@H](CCC(=O)O)C(=O)N[C@@H](Cc1ccc(O)cc1)C(=O)N[C@@H](Cc1c[nH]c2ccccc12)C(=O)N[C@H]1CCCCNC(=S)SC[C@@H](C(N)=O)NC(=O)[C@H](CO)NC(=O)[C@H](CC(C)C)NC(=O)[C@H](CC(C)C)NC1=O)[C@@H](C)O | 43.3%
CC(=O)N[C@H](C(=O)N[C@@H](CO)C(=O)N[C@@H](Cc1ccccc1)C(=O)N[C@@H](C)C(=O)N[C@@H](CCC(=O)O)C(=O)N[C@@H](Cc1ccc(O)cc1)C(=O)N[C@@H](Cc1c[nH]c2ccccc12)C(=O)N[C@H]1CSC(=S)NCCCC[C@@H](C(N)=O)NC(=O)[C@H](CO)NC(=O)[C@H](CC(C)C)NC(=O)[C@H](CC(C)C)NC1=O)[C@@H](C)O | 0.23%
CC(=O)N[C@H](C(=O)N[C@@H](CO)C(=O)N[C@@H](Cc1ccccc1)C(=O)N[C@@H](C)C(=O)N[C@H]1CCCCNC(=S)SC[C@@H](C(=O)N[C@@H](CC(C)C)C(=O)N[C@@H](CO)C(=O)N2CCC[C@H]2C(N)=O)NC(=O)[C@H](CC(N)=O)NC(=O)[C@H](Cc2c[nH]c3ccccc23)NC(=O)[C@H](Cc2ccc(O)cc2)NC1=O)[C@@H](C)O | 6.88%
CC(=O)N[C@H](C(=O)N[C@@H](CO)C(=O)N[C@@H](Cc1ccccc1)C(=O)N[C@@H](C)C(=O)N[C@H]1CSC(=S)NCCCC[C@@H](C(=O)N[C@@H](CC(C)C)C(=O)N[C@@H](CO)C(=O)N2CCC[C@H]2C(N)=O)NC(=O)[C@H](CC(N)=O)NC(=O)[C@H](Cc2c[nH]c3ccccc23)NC(=O)[C@H](Cc2ccc(O)cc2)NC1=O)[C@@H](C)O | 9.58%
CC(=O)N[C@H](C(=O)N[C@@H](CO)C(=O)N[C@@H](Cc1ccccc1)C(=O)N[C@H]1CCCCNC(=S)SC[C@@H](C(=O)N[C@@H](CC(C)C)C(=O)N[C@@H](CC(C)C)C(=O)N[C@@H](CO)C(=O)N2CCC[C@H]2C(N)=O)NC(=O)[C@H](Cc2c[nH]c3ccccc23)NC(=O)[C@H](Cc2ccc(O)cc2)NC(=O)[C@H](CCC(=O)O)NC1=O)[C@@H](C)O | 39.3%
CC(=O)N[C@H](C(=O)N[C@@H](CO)C(=O)N[C@@H](Cc1ccccc1)C(=O)N[C@H]1CSC(=S)NCCCC[C@@H](C(=O)N[C@@H](CC(C)C)C(=O)N[C@@H](CC(C)C)C(=O)N[C@@H](CO)C(=O)N2CCC[C@H]2C(N)=O)NC(=O)[C@H](Cc2c[nH]c3ccccc23)NC(=O)[C@H](Cc2ccc(O)cc2)NC(=O)[C@H](CCC(=O)O)NC1=O)[C@@H](C)O | 9.15%
CC(=O)N[C@H](C(=O)N[C@H]1CCCCNC(=S)SC[C@@H](C(=O)N[C@@H](Cc2c[nH]c3ccccc23)C(=O)N[C@@H](CC(N)=O)C(=O)N[C@@H](CC(C)C)C(=O)N[C@@H](CC(C)C)C(=O)N[C@@H](CO)C(=O)N2CCC[C@H]2C(N)=O)NC(=O)[C@H](CCC(=O)O)NC(=O)[C@H](C)NC(=O)[C@H](Cc2ccccc2)NC1=O)[C@@H](C)O | 15.3%
CC(=O)N[C@H](C(=O)N[C@H]1CSC(=S)NCCCC[C@@H](C(=O)N[C@@H](Cc2c[nH]c3ccccc23)C(=O)N[C@@H](CC(N)=O)C(=O)N[C@@H](CC(C)C)C(=O)N[C@@H](CC(C)C)C(=O)N[C@@H](CO)C(=O)N2CCC[C@H]2C(N)=O)NC(=O)[C@H](CCC(=O)O)NC(=O)[C@H](C)NC(=O)[C@H](Cc2ccccc2)NC1=O)[C@@H](C)O | 4.81%
CC(=O)N[C@H]1CSC(=S)NCCCC[C@@H](C(=O)N[C@@H](Cc2ccc(O)cc2)C(=O)N[C@@H](Cc2c[nH]c3ccccc23)C(=O)N[C@@H](CC(N)=O)C(=O)N[C@@H](CC(C)C)C(=O)N[C@@H](CC(C)C)C(=O)N[C@@H](CO)C(=O)N2CCC[C@H]2C(N)=O)NC(=O)[C@H](C)NC(=O)[C@H](Cc2ccccc2)NC(=O)[C@H](CO)NC1=O | 8.38%
